Assay results reported in patent US20240400689A1.
Values joined by “and” are separate entries in the source; they are usually repeats but may differ in a detail not shown here. Identical values can stand only once.

Assays:
[1] = molecular target: human CD276 protein (human) (UniProt Q5ZPR3); experiment: cell-based or functional assay
[2] = molecular target: human CD276 protein (human) (UniProt Q5ZPR3); experiment: FACS on SKOV3 cells

Sequence of human CD276 protein (human) (Q5ZPR3 29-534): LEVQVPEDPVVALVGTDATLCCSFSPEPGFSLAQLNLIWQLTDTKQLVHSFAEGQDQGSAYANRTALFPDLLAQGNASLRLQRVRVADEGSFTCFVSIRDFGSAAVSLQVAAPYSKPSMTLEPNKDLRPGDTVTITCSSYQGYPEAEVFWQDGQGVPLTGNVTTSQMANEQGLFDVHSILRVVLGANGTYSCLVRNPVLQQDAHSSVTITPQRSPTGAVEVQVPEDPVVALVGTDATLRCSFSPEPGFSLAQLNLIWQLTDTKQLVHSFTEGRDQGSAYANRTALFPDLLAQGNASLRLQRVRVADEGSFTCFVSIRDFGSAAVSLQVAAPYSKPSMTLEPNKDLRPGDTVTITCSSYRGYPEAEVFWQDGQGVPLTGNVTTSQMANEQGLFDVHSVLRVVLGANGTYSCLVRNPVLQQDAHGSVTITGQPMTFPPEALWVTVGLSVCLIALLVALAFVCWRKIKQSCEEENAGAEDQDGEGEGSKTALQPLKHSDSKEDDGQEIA

In the case of MGA271-WT Fc (antibody), the EC50 of antibody induced CDC effect [1] is reported as 8.91 nM and 9.64 nM and the Top cytotoxicity (%), CDC [1] is reported as 19.6% and 19.8%.
igG (antibody) gave an MFI (Max) [2] of 115.
